B1: FhHDM-1: 90-residue polypeptide from F. hepatica, Helminth Defense Molecule-1 (SEQ ID NO:24); recombinant form minus N-terminal signal peptide, expressed in E. coli (protein, listed as Fasciola hepatica)
chain: MRFIVLLCLAEVLLAAYVEARPSEESREKLRESGRKMVKALRDAVTKAYEKARDRAMAYLAKDNLGEKITEVITILLNRLTDRLEKYAGN

Assays:
[1] = LPS-binding ELISA; parameters: species or system E. coli; settings: for binding to immobilised LPS: 0.02-2 μg/well on LPS-coated plate (100 ng/well)
Procedure: FIG. 9 is a graphical representation showing LPS neutralization by FhHDM-1. The ability of FhHDM-1 (Δ), FhHDM-1 p1 (●) or FhHDM-1 p3 (▪) to bind to LPS was investigated by (A) incubating a range of concentrations of proteins (0.02-2 μg/well) in an LPS-coated (100 ng/well) microtitre plate. Bound peptides were detected by ELISA using rabbit anti-FhHDM-1 as a primary antibody. (B) FhHDM-1 or derived peptides (0.1 μg) were incubated in the presence of LPS (0.05-5 μg/well) and bound peptides measured as described above. Binding of peptides to the LPS-immobilized plates was expressed as a percentage of that measured for 2 μg (for panel A) or 0.1 μg (for panel B) of FhHDM-1. Data are the means±SD from three separate experiments. (C) FhHDM-1 and FhHDM-1 p3 but not FhHDM-1 p1 reduced the interaction between LPS and LBP as effectively as LL-37. LPS-coated microtitre plates were incubated with 5 μg/well of LL-37, FhHDM-1 or derived peptides for 1 h prior to the addition of 10% human sera in PBS. Interaction of LBP with LPS was measured by ELISA using an anti-LBP primary antibody and expressed as a percentage of that detected for 10% sera in the absence of added peptides. Data are the mean±SD of three separate experiments. Statistical significance was calculated using the student t-test and represent a comparison to the binding of 10% sera to immobilized LPS. (D) Binding of FITC-conjugated LPS to RAW264.7 cells was inhibited by LL-37, FhHDM-1 and peptides. […] The binding of FITC-LPS was analyzed by flow cytometry. LPS binding was expressed as a percentage of the mean fluorescence obtained for the addition of FITC-LPS to cells in the absence of peptides. […] Two hours later, sera was collected and serum levels of TNF and (F) IL-10 measured by ELISA. (G) Peritoneal macrophages were isolated, cultured unstimulated in media overnight and then levels of TNF and (H) IL-10 in the culture measured by ELISA. […]
The ability of FhHDM-1 and derived peptides to bind LPS from E. coli 0111:B4 was determined by ELISA using rabbit anti-FhHDM-1 as a primary antibody (FIG. 9A). […]

[2] = system: peritoneal macrophages; test: Alternative activation of peritoneal macrophages in mice (RT-PCR); type: in vivo; settings: Balb/c mice, three i.p. injections of 5 μg
Procedure: FIG. 7 is a photographic representation showing the results of a RT-PCR analysis of macrophage RNA isolated from Balb/c mice given three i.p. injections of 5 μg native FhHDM-1 (NFh6) or recombinant FhHDM-1 (FH6).
Balb/c mice were given three intraperitoneal (i.p.) injections of 5 μg native (NFh6) or recombinant FhHDM-1.

[3] = system: LPS-induced inflammatory response; test: Endotoxin (LPS)-induced inflammation in mice, co-injection; type: in vivo, BALB/c mice
Procedure: FIG. 9 is a graphical representation showing LPS neutralization by FhHDM-1. The ability of FhHDM-1 (Δ), FhHDM-1 p1 (●) or FhHDM-1 p3 (▪) to bind to LPS was investigated by (A) incubating a range of concentrations of proteins (0.02-2 μg/well) in an LPS-coated (100 ng/well) microtitre plate. Bound peptides were detected by ELISA using rabbit anti-FhHDM-1 as a primary antibody. (B) FhHDM-1 or derived peptides (0.1 μg) were incubated in the presence of LPS (0.05-5 μg/well) and bound peptides measured as described above. Binding of peptides to the LPS-immobilized plates was expressed as a percentage of that measured for 2 μg (for panel A) or 0.1 μg (for panel B) of FhHDM-1. Data are the means±SD from three separate experiments. (C) FhHDM-1 and FhHDM-1 p3 but not FhHDM-1 p1 reduced the interaction between LPS and LBP as effectively as LL-37. LPS-coated microtitre plates were incubated with 5 μg/well of LL-37, FhHDM-1 or derived peptides for 1 h prior to the addition of 10% human sera in PBS. Interaction of LBP with LPS was measured by ELISA using an anti-LBP primary antibody and expressed as a percentage of that detected for 10% sera in the absence of added peptides. Data are the mean±SD of three separate experiments. Statistical significance was calculated using the student t-test and represent a comparison to the binding of 10% sera to immobilized LPS. (D) Binding of FITC-conjugated LPS to RAW264.7 cells was inhibited by LL-37, FhHDM-1 and peptides. RAW264.7 cells (5×10^5 cells/mL) were incubated with 1 μg/mL of FITC-conjugated LPS in the presence of increasing concentrations (0.1-10 μg/mL) of FhHDM-1, FhHDM-1 p1 and FhHDM-1 p3 and LL-37 in RPMI 1640 containing 10% FBS for 20 min at 4° C. The binding of FITC-LPS was analyzed by flow cytometry. LPS binding was expressed as a percentage of the mean fluorescence obtained for the addition of FITC-LPS to cells in the absence of peptides. Data are the mean±SD of two independent experiments. (E) FhHDM-1 and FhHDM-1 p3 both suppress the inflammatory response induced by LPS in mice. BALB/c mice were intra-peritoneally injected with 1 μg of LPS alone or combined with 1 μg of FhHDM-1, FhHDM-1 p3 or LL-37. Two hours later, sera was collected and serum levels of TNF and (F) IL-10 measured by ELISA. (G) Peritoneal macrophages were isolated, cultured unstimulated in media overnight and then levels of TNF and (H) IL-10 in the culture measured by ELISA. Data are the mean±SD of six mice in each group. Statistical significance represents a comparison to the levels of cytokines secreted by mice given LPS only.
Human Defense peptides protect against harmful inflammatory responses by preventing activation of macrophages by classical TLR ligands such as LPS (Scott et al. 2002, J. Immunol. 169, 3883-3891). Here, the inventors employed a murine model to examine whether FhHDM-1 and derived peptides can suppress LPS-induced Th1 inflammation. BALB/c mice were injected intra-peritoneally with 1 μg of LPS alone or LPS combined with 1 μg of FhHDM-1, FhHDM-1 p3 or LL-37. Two hours later, sera was collected and serum levels of the pro-inflammatory mediators TNF and IL-10 were measured by ELISA. […] Because macrophages are the main source of pro-inflammatory mediators in this murine model of inflammation, peritoneal macrophages were isolated from treated mice (LPS±FhHDM-1, peptides or LL-37 as described above), cultured unstimulated in media overnight and then levels of TNF and IL-10 in the culture media were measured by ELISA.
Six week-old female BALB/c mice were purchased from ARC (Perth, Australia) and maintained according to the guidelines of the University of Technology Sydney Animal Care and Ethics committee. For the analysis for endotoxin-induced inflammation, mice were intra-peritoneally injected with 1 μg of E. coli LPS (serotype 111:B4; Sigma) either with or without 1 μg FhHDM-1 or derived peptides. After 2 h mice were sacrificed by cervical dislocation. […]

[4] = BALB/c mice, 1 μg LPS mixed with 1 μg i.p., 2 h
[5] = macrophages from treated mice, cultured unstimulated overnight

Molecule | binding to immobilised LPS [1] | expression of Arg-1 and Ym1 in isolated peritoneal macrophages [2] | serum levels of IL-10 [3, 4] | serum levels of TNF [3, 4] | LPS-induced secretion of IL-10 from peritoneal macrophages [3, 5] | TNF secreted from peritoneal macrophages [3, 5] | binding to free LPS in solution (competition with immobilised LPS) ([1]; 0.1 μg/well with LPS 0.05-5 μg/well)
KARDRAMAYLAKDNLGEKITEVITILLNRL (FhHDM-1 peptide 1 comprising a truncated amphipathic helix contained in FhHDM-1) [FhHDM-1 p1, peptide in which the amphipathic helix is truncated] | did not bind to LPS |  |  |  |  |  | 
B1 | bound to LPS in a concentration-dependent manner | increased expression | significant reduction | significant reduction | significantly inhibited | significantly reduced | bound to free LPS in solution

From US11311610B2, “Immune-modulating agents and uses therefor” (UNIVERSITY OF TECHNOLOGY SYDNEY, priority 2010, dated 2022)
